Measurements taken from patent US20170218430.

System: methylarginine peptide (SEQ ID NO:1)

Row | Substance | demethylation of the peptide, read as gain of anti-RG signal on slot blot (6 hours, 30 C) | demethylation of the peptide, read as loss of anti-mRG signal on slot blot (20 hours, 22.5 C)
1 | TbJmJ1 fusion protein (MBP-JmJ1, Jumonji Fusion Protein 1) | giving a positive reaction with anti-RG in a dose-dependent manner | –
2 | TbJmJ2 fusion protein (MBP-JmJ2, Jumonji Fusion Protein 2) | giving a positive reaction with anti-RG in a dose-dependent manner | indicates a concentration-dependent decrease in the methylation status of the GmRG peptide
